The results in this text go back to article PMC12324117.

In the assay the target is LRRC4B (453–576) protein (UniProt Q9NT99). As to the kind of experiment: ELISA; plates coated with LRRC4B (453–576) protein at 1 µg/ml in 50 mM carbonate buffer pH 9.6; FAM19A5 added; detected with HRP-conjugated C-A5-Ab; OD 450 nm (format as told for the CSF ELISA); n = 10 each.
UniProt Q9NT99, sequence (Q9NT99 453-576): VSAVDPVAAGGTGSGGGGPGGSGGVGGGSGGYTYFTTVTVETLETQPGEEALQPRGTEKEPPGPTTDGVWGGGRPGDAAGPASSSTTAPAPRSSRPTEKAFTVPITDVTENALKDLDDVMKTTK

What is called EC50 is the concentration giving half of the maximal effect. A lower EC50 goes with greater potency. The substance “MT FAM19A5 protein (ELISA) (natural protein)” displayed a concentration for a half-maximal effect (EC50) of 2.56 nM.

Substance “WT FAM19A5 protein (ELISA) (natural protein)” came in with a half-maximal effective concentration (EC50) of 0.199 nM.
